Assay results taken from US20240117018A1.

Columns and labels:
Assay in all cases: cell-based or functional assay
[1] = molecular target: HIV-1 Env of pseudovirus C3347.c11 (HIV-1)
[2] = molecular target: HIV-1 Env of pseudovirus 6952.v1.c20 (HIV-1)
[3] = molecular target: HIV-1 Env of pseudovirus 0815.v3.c3 (HIV-1)
[4] = molecular target: HIV-1 Env of pseudovirus 620345.c01 (HIV-1)
[5] = molecular target: HIV-1 Env of pseudovirus P0402_c2_11 (HIV-1)
[6] = molecular target: HIV-1 Env of pseudovirus R1166.c01 (HIV-1)
[7] = molecular target: HIV-1 Env of pseudovirus BJOX028000.10.3 (HIV-1)
[8] = molecular target: HIV-1 Env of pseudovirus 89-F1_2_25 (HIV-1)
[9] = molecular target: HIV-1 Env of pseudovirus R2184.c04 (HIV-1)
[10] = molecular target: HIV-1 Env of pseudovirus X1254_c3 (HIV-1)
[11] = molecular target: HIV-1 Env of pseudovirus 3016.v5.c45 (HIV-1)
[12] = molecular target: HIV-1 Env of pseudovirus 6811.v7.c18 (HIV-1)
[13] = molecular target: HIV-1 Env of pseudovirus T251-18 (HIV-1)
[14] = molecular target: HIV-1 Env of pseudovirus 6480.v4.c25 (HIV-1)
[15] = molecular target: HIV-1 Env of pseudovirus R3265.c06 (HIV-1)
[16] = molecular target: HIV-1 Env of pseudovirus 3301.v1.c24 (HIV-1)
[17] = molecular target: HIV-1 Env of pseudovirus 231966.c02 (HIV-1)
[18] = molecular target: HIV-1 Env of pseudovirus 231965.c01 (HIV-1)
[19] = molecular target: HIV-1 Env of pseudovirus 211-9 (HIV-1)
[20] = molecular target: HIV-1 Env of pseudovirus 3817.v2.c59 (HIV-1)
[21] = molecular target: HIV-1 Env of pseudovirus X2131_C1_B5 (HIV-1)
[22] = molecular target: HIV-1 Env of pseudovirus BJOX015000.11.5 (HIV-1)
[23] = molecular target: HIV-1 Env of pseudovirus 235-47 (HIV-1)
[24] = molecular target: HIV-1 Env of pseudovirus BJOX025000.01.1 (HIV-1)
[25] = molecular target: HIV-1 Env of pseudovirus BJOX010000.06.2 (HIV-1)
[26] = molecular target: HIV-1 Env of pseudovirus P1981_C5_3 (HIV-1)
[27] = molecular target: HIV-1 Env of pseudovirus 6545.v4.c1 (HIV-1)
[28] = molecular target: HIV-1 Env of pseudovirus A07412M1.vrc12 (HIV-1)
[29] = molecular target: HIV-1 Env of pseudovirus 3103.v3.c10 (HIV-1)
[30] = molecular target: HIV-1 Env of pseudovirus C4118.c09 (HIV-1)
[31] = molecular target: HIV-1 Env of pseudovirus 6540.v4.c1 (HIV-1)
[32] = molecular target: HIV-1 Env of pseudovirus T255-34 (HIV-1)

## PG16 (antibody)
[1]
  IC50 neutralization (TZM.bl): 0.008 µg/mL
  IC80 neutralization (TZM.bl): 0.045 µg/mL
[2]
  IC50 neutralization (TZM.bl): 21.9 µg/mL
  IC80 neutralization (TZM.bl): > 50 µg/mL
[3]
  IC50 neutralization (TZM.bl): > 50 µg/mL
  IC80 neutralization (TZM.bl): > 50 µg/mL
[4]
  IC50 neutralization (TZM.bl): > 50 µg/mL
  IC80 neutralization (TZM.bl): > 50 µg/mL
[5]
  IC50 neutralization (TZM.bl): 0.025 µg/mL
  IC80 neutralization (TZM.bl): 0.411 µg/mL
[6]
  IC50 neutralization (TZM.bl): 0.28 µg/mL
  IC80 neutralization (TZM.bl): 4.38 µg/mL
[7]
  IC50 neutralization (TZM.bl): > 50 µg/mL
  IC80 neutralization (TZM.bl): > 50 µg/mL
[8]
  IC50 neutralization (TZM.bl): 47.6 µg/mL
  IC80 neutralization (TZM.bl): > 50 µg/mL
[9]
  IC50 neutralization (TZM.bl): 0.67 µg/mL
  IC80 neutralization (TZM.bl): > 50 µg/mL
[10]
  IC50 neutralization (TZM.bl): 0.023 µg/mL
  IC80 neutralization (TZM.bl): 0.218 µg/mL
[11]
  IC50 neutralization (TZM.bl): > 50 µg/mL
  IC80 neutralization (TZM.bl): > 50 µg/mL
[12]
  IC50 neutralization (TZM.bl): > 50 µg/mL
  IC80 neutralization (TZM.bl): > 50 µg/mL
[13]
  IC50 neutralization (TZM.bl): 1.72 µg/mL
  IC80 neutralization (TZM.bl): 44.7 µg/mL
[14]
  IC50 neutralization (TZM.bl): > 50 µg/mL
  IC80 neutralization (TZM.bl): > 50 µg/mL
[15]
  IC50 neutralization (TZM.bl): 0.016 µg/mL
  IC80 neutralization (TZM.bl): 0.146 µg/mL
[16]
  IC50 neutralization (TZM.bl): 0.02 µg/mL
  IC80 neutralization (TZM.bl): 0.087 µg/mL
[17]
  IC50 neutralization (TZM.bl): 0.007 µg/mL
  IC80 neutralization (TZM.bl): 0.031 µg/mL
[18]
  IC50 neutralization (TZM.bl): 1.44 µg/mL
  IC80 neutralization (TZM.bl): > 50 µg/mL
[19]
  IC50 neutralization (TZM.bl): 0.029 µg/mL
  IC80 neutralization (TZM.bl): 0.144 µg/mL
[20]
  IC50 neutralization (TZM.bl): 0.008 µg/mL
  IC80 neutralization (TZM.bl): 0.06 µg/mL
[21]
  IC50 neutralization (TZM.bl): 0.024 µg/mL
  IC80 neutralization (TZM.bl): 0.139 µg/mL
[22]
  IC50 neutralization (TZM.bl): 3.13 µg/mL
  IC80 neutralization (TZM.bl): > 50 µg/mL
[23]
  IC50 neutralization (TZM.bl): 0.092 µg/mL
  IC80 neutralization (TZM.bl): 4.51 µg/mL
[24]
  IC50 neutralization (TZM.bl): 0.071 µg/mL
  IC80 neutralization (TZM.bl): > 50 µg/mL
[25]
  IC50 neutralization (TZM.bl): 1.2 µg/mL
  IC80 neutralization (TZM.bl): > 50 µg/mL
[26]
  IC50 neutralization (TZM.bl): 0.376 µg/mL
  IC80 neutralization (TZM.bl): > 50 µg/mL
[27]
  IC50 neutralization (TZM.bl): 0.044 µg/mL
  IC80 neutralization (TZM.bl): 1.56 µg/mL
[28]
  IC50 neutralization (TZM.bl): 0.343 µg/mL
  IC80 neutralization (TZM.bl): > 50 µg/mL
[29]
  IC50 neutralization (TZM.bl): 25.4 µg/mL
  IC80 neutralization (TZM.bl): > 50 µg/mL
[30]
  IC50 neutralization (TZM.bl): 0.022 µg/mL
  IC80 neutralization (TZM.bl): 0.143 µg/mL
[31]
  IC50 neutralization (TZM.bl): 0.035 µg/mL
  IC80 neutralization (TZM.bl): 0.42 µg/mL
[32]
  IC50 neutralization (TZM.bl): 0.024 µg/mL
  IC80 neutralization (TZM.bl): 0.125 µg/mL

## PG9 (antibody)
[1]
  IC50 neutralization (TZM.bl): 0.032 µg/mL
  IC80 neutralization (TZM.bl): 0.113 µg/mL
[2]
  IC50 neutralization (TZM.bl): > 50 µg/mL
  IC80 neutralization (TZM.bl): > 50 µg/mL
[3]
  IC50 neutralization (TZM.bl): > 50 µg/mL
  IC80 neutralization (TZM.bl): > 50 µg/mL
[4]
  IC50 neutralization (TZM.bl): 1.33 µg/mL
  IC80 neutralization (TZM.bl): > 50 µg/mL
[5]
  IC50 neutralization (TZM.bl): 0.296 µg/mL
  IC80 neutralization (TZM.bl): 2.37 µg/mL
[6]
  IC50 neutralization (TZM.bl): 0.736 µg/mL
  IC80 neutralization (TZM.bl): 2.88 µg/mL
[7]
  IC50 neutralization (TZM.bl): 1.1 µg/mL
  IC80 neutralization (TZM.bl): 21.5 µg/mL
[8]
  IC50 neutralization (TZM.bl): 0.668 µg/mL
  IC80 neutralization (TZM.bl): 10.1 µg/mL
[9]
  IC50 neutralization (TZM.bl): 0.255 µg/mL
  IC80 neutralization (TZM.bl): 1.24 µg/mL
[10]
  IC50 neutralization (TZM.bl): 0.065 µg/mL
  IC80 neutralization (TZM.bl): 0.304 µg/mL
[11]
  IC50 neutralization (TZM.bl): 2.46 µg/mL
  IC80 neutralization (TZM.bl): > 50 µg/mL
[12]
  IC50 neutralization (TZM.bl): > 50 µg/mL
  IC80 neutralization (TZM.bl): > 50 µg/mL
[13]
  IC50 neutralization (TZM.bl): > 50 µg/mL
  IC80 neutralization (TZM.bl): > 50 µg/mL
[14]
  IC50 neutralization (TZM.bl): > 50 µg/mL
  IC80 neutralization (TZM.bl): > 50 µg/mL
[15]
  IC50 neutralization (TZM.bl): 0.163 µg/mL
  IC80 neutralization (TZM.bl): 0.535 µg/mL
[16]
  IC50 neutralization (TZM.bl): 0.216 µg/mL
  IC80 neutralization (TZM.bl): 0.756 µg/mL
[17]
  IC50 neutralization (TZM.bl): 0.075 µg/mL
  IC80 neutralization (TZM.bl): 0.257 µg/mL
[18]
  IC50 neutralization (TZM.bl): 1.28 µg/mL
  IC80 neutralization (TZM.bl): 48 µg/mL
[19]
  IC50 neutralization (TZM.bl): 0.049 µg/mL
  IC80 neutralization (TZM.bl): 0.243 µg/mL
[20]
  IC50 neutralization (TZM.bl): 0.02 µg/mL
  IC80 neutralization (TZM.bl): 0.062 µg/mL
[21]
  IC50 neutralization (TZM.bl): 0.084 µg/mL
  IC80 neutralization (TZM.bl): 0.286 µg/mL
[22]
  IC50 neutralization (TZM.bl): 0.322 µg/mL
  IC80 neutralization (TZM.bl): 1.49 µg/mL
[23]
  IC50 neutralization (TZM.bl): 0.233 µg/mL
  IC80 neutralization (TZM.bl): 1.2 µg/mL
[24]
  IC50 neutralization (TZM.bl): 0.144 µg/mL
  IC80 neutralization (TZM.bl): 0.335 µg/mL
[25]
  IC50 neutralization (TZM.bl): 0.154 µg/mL
  IC80 neutralization (TZM.bl): 0.74 µg/mL
[26]
  IC50 neutralization (TZM.bl): 0.258 µg/mL
  IC80 neutralization (TZM.bl): 2.51 µg/mL
[27]
  IC50 neutralization (TZM.bl): 0.099 µg/mL
  IC80 neutralization (TZM.bl): 0.351 µg/mL
[28]
  IC50 neutralization (TZM.bl): 0.697 µg/mL
  IC80 neutralization (TZM.bl): 7.96 µg/mL
[29]
  IC50 neutralization (TZM.bl): 28 µg/mL
  IC80 neutralization (TZM.bl): > 50 µg/mL
[30]
  IC50 neutralization (TZM.bl): 0.068 µg/mL
  IC80 neutralization (TZM.bl): 0.2 µg/mL
[31]
  IC50 neutralization (TZM.bl): 0.07 µg/mL
  IC80 neutralization (TZM.bl): 0.253 µg/mL
[32]
  IC50 neutralization (TZM.bl): 0.023 µg/mL
  IC80 neutralization (TZM.bl): 0.134 µg/mL
